Assay results published in PMC4220974, “Effect of the L499M mutation of the ascomycetous Botrytis aclada laccase on redox potential and catalytic properties” (Acta Crystallographica Section D: Biological Crystallography, 2014).

Legend:
Test in all cases: purified protein
Assay type in all cases: biochemical, Botrytis aclada
[1] = tested on: CCn1c(=NN=c2sc3cc(S(=O)(=O)O)ccc3n2CC)sc2cc(S(=O)(=O)O)ccc21; conditions: pH 4.0, 100 mM citrate-phosphate, 30 °C, air-saturated, µ and ± signs lost in the table text (header reads M), apparent Km, also measured at pH 3, 5, 6
[2] = tested on: COc1cccc(OC)c1O; conditions: pH 4.0, 100 mM citrate-phosphate, 30 °C, air-saturated, µ and ± signs lost in the table text (header reads M), apparent Km, also measured at pH 3, 5, 6
[3] = substrate: CCn1c(=NN=c2sc3cc(S(=O)(=O)O)ccc3n2CC)sc2cc(S(=O)(=O)O)ccc21; conditions: pH 4.0, 100 mM citrate-phosphate, 30 °C, air-saturated, µ and ± signs lost in the table text (header reads M), apparent Km, also measured at pH 3, 5, 6; remark: listed apart in the source
[4] = substrate: COc1cccc(OC)c1O; conditions: pH 4.0, 100 mM citrate-phosphate, 30 °C, air-saturated, apparent Km, also measured at pH 3, 5, 6

BaL (Botrytis aclada laccase) (Botrytis aclada; L536M)
Km [1]: 19.3 ± 1.0 µM
Km [2]: 80.8 ± 2.7 µM

B1: BaL (Botrytis aclada laccase) (Botrytis aclada) (protein)
chain: SCANSATSRSCWGEYSIDTNWYDVTPTGVTREYWLSVENSTITPDGYTRSAMTFNGTVPGPAIIADWGDNLIIHVTNNLEHNGTSIHWHGIRQLGSLEYDGVPGVTQCPIAPGDTLTYKFQVTQYGTTWYHSHFSLQYGDGLFGPLIINGPATADYDEDVGVIFLQDWAHESVFEIWDTARLGAPPALENTLMNGTNTFDCSASTDPNCVGGGKKFELTFVEGTKYRLRLINVGIDSHFEFAIDNHTLTVIANDLVPIVPYTTDTLLIGIGQRYDVIVEANAAADNYWIRGNWGTTCSTNNEAANATGILRYDSSSIANPTSVGTTPRGTCEDEPVASLVPHLALDVGGYSLVDEQVSSAFTNYFTWTINSSSLLLDWSSPTTLKIFNNETIFPTEYNVVALEQTNANEEWVVYVIEDLTGFGIWHPIHLHGHDFFIVAQETDVFNSDESPAKFNLVNPPRRDVAALPGNGYLAIAFKLDNPGSWLLHCHIAWHASEGLAMQFVESQSSIAVKMTDTAIFEDTCANWNAYTPTQLFAEDDSGI
notes: full-length cDNA expressed in secreted form in Pichia pastoris X33; 543 residues; kinetics on glycosylated enzyme
Km [3]: 14.0 ± 1.0 µM
Km [4]: 8.3 ± 0.7 µM
